PMC8178393

Molecular target: pyruvate kinase isozyme M2 (mouse (endogenous in splenic CD4+ T cells polarized into Th17 cells)) (UniProt P52480)
Test: cross-linking; Th17 cells treated with or without HCA for 24 h; cells washed with ice-cold PBS pH 8.0, disuccinimidyl suberate at 1 uM for 30 min at room temperature, quenched with 10 mM Tris, lysed, Western blot for monomeric and tetrameric PKM2

Chain of pyruvate kinase isozyme M2, P52480 1-531 (enzyme; other documents disagree on this pair) (P52480 whole entry): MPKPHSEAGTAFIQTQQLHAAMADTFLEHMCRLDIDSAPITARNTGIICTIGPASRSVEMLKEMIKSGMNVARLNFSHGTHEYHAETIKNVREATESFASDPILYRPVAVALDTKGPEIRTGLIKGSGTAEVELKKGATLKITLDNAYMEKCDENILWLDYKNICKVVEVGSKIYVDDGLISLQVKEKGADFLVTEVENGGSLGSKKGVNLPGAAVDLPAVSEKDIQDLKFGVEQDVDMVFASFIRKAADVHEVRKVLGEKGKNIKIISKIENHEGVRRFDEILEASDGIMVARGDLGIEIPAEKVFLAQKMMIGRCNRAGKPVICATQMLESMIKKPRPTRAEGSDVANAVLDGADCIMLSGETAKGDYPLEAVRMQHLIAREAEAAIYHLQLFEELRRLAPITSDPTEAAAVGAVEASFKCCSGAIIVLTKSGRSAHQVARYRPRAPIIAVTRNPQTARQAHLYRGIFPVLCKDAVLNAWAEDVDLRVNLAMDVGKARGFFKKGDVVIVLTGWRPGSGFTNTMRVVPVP

- stoichiometry N: 4
Substance: pyruvate kinase isozyme M2, P52480 1-531 (enzyme; other documents disagree on this pair)
